Measurements published in US20210008161A1, “METHODS AND COMPOSITIONS FOR IMPROVED HOMOLOGY DIRECTED REPAIR” (CRISPR THERAPEUTICS AG, priority 2019, published 2021).

Test system: CD34-expressing LT-HSPCs
Assay: Indel formation at HBB locus by TIDE analysis
Type: cell-based, human
Conditions: RNP of Cas9 and R02 gRNA only; TIDE; FIG. 11
Description: Editing efficiency at the HBB locus was evaluated by measuring indel formation by TIDE analysis. […] This group had 1.7-fold reduction in INDEL frequency relative to cells treated with RNP+AAV,

B1: R02 gRNA: sgRNA targeting the HBB locus (SEQ ID NO: 17), used as RNP with Cas9 (nucleic acid)
guide: CNUNUNGCCCCACAGGGCAGUAAGUUUUAGAGCUAGAAAUAGCAAGUUAAAAUAAGGCUAGUCCGUUAUCAACUUGAAAAAGUGGCACCGAGUCGGUGCUNUNUNU
modifications: Synthetic gRNA-related, HBB sgRNA; modified_base (1)..(6) every c and u is a 2′ O-methyl phosphorothioate nucleotide; (2)..(2) n is a phosphorothioate nucleotide; (4)..(4) n is a phosphorothioate nucleotide; (6)..(6) n is a phosphorothioate nucleotide; modified_base (100)..(104) every u is a 2′ O-methyl phosphorothioate nucleotide; (101)..(101) n is a phosphorothioate nucleotide; (103)..(103) n is
For B1, which indel formation is on record?
Its indel formation is 94%.
